Measurements from PMC8837033.

Molecular target: Shp-2 (UniProt P35235)
Assay: anti-FLAG co-IP, Shp-2 immunoblot
Settings: reference: wild type, 1 mM pervanadate; sites Y447,Y470

Siglec-8 (from UniProt Q9NYZ4) Y447F+Y470F, 1 mM pervanadate
binding against the reference: lost
